One substance from US20230090502 can be followed below.

In series [1] the test system is T1, Biosyn#6 (229e) Dabcyl-YGSTLQAGLRK-EDANS.
T1 sequence: YGSTLQAGLRK

For series [2], the system named is T2, Biosyn#1 (cov19) Dabcyl-TSAVLQSGFRK-EDANS.
T2 sequence: TSAVLQSGFRK

In series [3] the test system is Biosyn#7 (HRV) Dabcyl-LEALFQGP[Asp-(EDANS) SQ [Amide].

Take Human Rhinovirus (HRV) 3C protease: the % Enz activity is 1%; the Enzymatic activity, Slope; 5 uM substrate, 150 ng/reaction enzyme was found to be 87 RFU/min; the “enzymatic activity, in words” value is given as “Complete specificity (no cross reactivity) was observed for the most abundant common cold virus, HRV”. Besides, in series [1], the % Enz activity is -7%; the Enzymatic activity, Slope; 5 uM substrate, 150 ng/reaction enzyme was 44 RFU/min; the “enzymatic activity, in words” value is “Complete specificity (no cross reactivity) was observed for the most abundant common cold virus, HRV”. In addition, in series [2], the % Enz activity is -1%; the Enzymatic activity, Slope; 5 uM substrate, 150 ng/reaction enzyme was -12 RFU/min; the “enzymatic activity, in words” value is reported as “Complete specificity (no cross reactivity) was observed for the most abundant common cold virus, HRV”. Moreover, in series [3], the % Enz activity worked out at 100%; the Enzymatic activity, Slope; 5 uM substrate, 150 ng/reaction enzyme was determined as 1040 RFU/min; the “enzymatic activity, in words” value is on record as “The Biosyn #7 substrate was specific for HRV”.
